# In patent US20110189729:
# Molecular target: lambda integrase Int-h/218 h/218 mutant (substitutions not given) (Bacteriophage lambda) (UniProt P03700)
# Assay: cell_activity
# Conditions: CHO-DG44
sequence,measurement,setting,value
CTGCTTTTTTATACTAAGTTGGCATTATAAAAAAGCATTGCTTATCAATTTGTTGCAACGAACAGGTCACTATCAGTCAAAATATAATCATTATTTGATTTC / GAAATCAAATAATGATTATATTTTGACTGATAGTGACCTGTTCGTTGCAACAAATTGATAAGCAATGCTTTTTTATAATGCCAACTTAGTATAAAAAAGCAG / CTGCTTTTTTATACTAACTTG / CAAGTTAGTATAAAAAAGCAG [attL.a ; attB],activity (% fluorescent cells),"attL.a x attB, with IHF and XIS, PCR verified",2
TCTGTTACAGGTCACTAATACCATCTAAGTAGTTGATTCATAGTGACTGCATATGTTGTGTTTTACAGTATTATGTAGTCTGTTTTTTATGCAAAATCTAATTTAATATATTGATATTTATATCATTTTACGTTTCTCGTTCAGCTTTTTTATACTAAGTTGGCATTATAAAAAAGCATTGCTTATCAATTTGTTGCAACGAACAGGTCACTATCAGTCAAAATAAAATCATTATTTGATTTC / GAAATCAAATAATGATTTTATTTTGACTGATAGTGACCTGTTCGTTGCAACAAATTGATAAGCAATGCTTTTTTATAATGCCAACTTAGTATAAAAAAGCTGAACGAGAAACGTAAAATGATATAAATATCAATATATTAAATTAGATTTTGCATAAAAAACAGACTACATAATACTGTAAAACACAACATATGCAGTCACTATGAATCAACTACTTAGATGGTATTAGTGACCTGTAACAGA / CTGCTTTTTTATACTAACTTG / CAAGTTAGTATAAAAAAGCAG [attP ; attB],activity (% fluorescent cells),"attP x attB, with IHF, 1.1% without IHF plasmid",1.7
TCTGTTACAGGTCACTAATACCATCTAAGTAGTTGATTCATAGTGACTGCATATGTTGTGTTTTACAGTATTATGTAGTCTGTTTTTTATGCAAAATCTAATTTAATATATTGATATTTATATCATTTTACGTTTCTCGTTCAGCTTTTTTATACTAAGTTGGCATTATAAAAAAGCATTGCTTATCAATTTGTTGCAACGAACAGGTCACTATCAGTCAAAATAAAATCATTATTTGATTTC / GAAATCAAATAATGATTTTATTTTGACTGATAGTGACCTGTTCGTTGCAACAAATTGATAAGCAATGCTTTTTTATAATGCCAACTTAGTATAAAAAAGCTGAACGAGAAACGTAAAATGATATAAATATCAATATATTAAATTAGATTTTGCATAAAAAACAGACTACATAATACTGTAAAACACAACATATGCAGTCACTATGAATCAACTACTTAGATGGTATTAGTGACCTGTAACAGA / GCTGTTACAGGTCACTAATACCATCTACGTAGTTGATTCATATTGTCTGCATATCTTGTGTTTTACAGTATTATCTAGTCTGTTTTTTATCCAAAATCTAATTTATTATATTGATATTTATATCATTTTACGTTTCTCGTTCAGCTTTTTTATACTAACTTG / CAAGTTAGTATAAAAAAGCTGAACGAGAAACGTAAAATGATATAAATATCAATATAATAAATTAGATTTTGGATAAAAAACAGACTAGATAATACTGTAAAACACAAGATATGCAGACAATATGAATCAACTACGTAGATGGTATTAGTGACCTGTAACAGC [attP ; attR.b],activity (% fluorescent cells),"attP x attR.b, with IHF and XIS",1.1
CTGCTTTTTTATACTAAGTTGGCATTATAAAAAAGCATTGCTTATCAATTTGTTGCAACGAACAGGTCACTATCAGTCAAAATAAAATCATTATTTGATTTC / GAAATCAAATAATGATTTTATTTTGACTGATAGTGACCTGTTCGTTGCAACAAATTGATAAGCAATGCTTTTTTATAATGCCAACTTAGTATAAAAAAGCAG / CTGCTTTTTTATACTAACTTG / CAAGTTAGTATAAAAAAGCAG [attL ; attB],activity (% fluorescent cells),"attL x attB, with IHF and XIS, PCR verified",2.3
TCTGTTACAGGTCACTAATACCATCTAAGTAGTTGATTCATAGTGACTGCATATGTTGTGTTTTACAGTATTATGTAGTCTGTTTTTTATGCAAAATCTAATTTAATATATTGATATTTATATCATTTTACGTTTCTCGTTCAGCTTTTTTATACTAAGTTGGCATTATAAAAAAGCATTGCTTATCAATTTGTTGCAACGAACAGGTCACTATCAGTCAAAATAAAATCATTATTTGATTTC / GAAATCAAATAATGATTTTATTTTGACTGATAGTGACCTGTTCGTTGCAACAAATTGATAAGCAATGCTTTTTTATAATGCCAACTTAGTATAAAAAAGCTGAACGAGAAACGTAAAATGATATAAATATCAATATATTAAATTAGATTTTGCATAAAAAACAGACTACATAATACTGTAAAACACAACATATGCAGTCACTATGAATCAACTACTTAGATGGTATTAGTGACCTGTAACAGA / GCTGTTACAGGTCACTAATACCATCTATGTAGTTGATTCATATTGTCTGCATATCTTGTGTTTTACAGTATTATCTAGTCTGTTTTTTATCCAAAATCTAATTTATTATATTGATATTTATATCATTTTACGTTTCTCGTTCAGCTTTTTTATACTAACTTG / CAAGTTAGTATAAAAAAGCTGAACGAGAAACGTAAAATGATATAAATATCAATATAATAAATTAGATTTTGGATAAAAAACAGACTAGATAATACTGTAAAACACAAGATATGCAGACAATATGAATCAACTACATAGATGGTATTAGTGACCTGTAACAGC [attP ; attR.a],activity (% fluorescent cells),"attP x attR.a, with IHF and XIS",1.5
TCTGTTACAGGTCACTAATACCATCTAAGTAGTTGATTCATAGTGACTGCATATGTTGTGTTTTACAGTATTATGTAGTCTGTTTTTTATGCAAAATCTAATTTAATATATTGATATTTATATCATTTTACGTTTCTCGTTCAGCTTTTTTATACTAAGTTGGCATTATAAAAAAGCATTGCTTATCAATTTGTTGCAACGAACAGGTCACTATCAGTCAAAATAAAATCATTATTTGATTTC / GAAATCAAATAATGATTTTATTTTGACTGATAGTGACCTGTTCGTTGCAACAAATTGATAAGCAATGCTTTTTTATAATGCCAACTTAGTATAAAAAAGCTGAACGAGAAACGTAAAATGATATAAATATCAATATATTAAATTAGATTTTGCATAAAAAACAGACTACATAATACTGTAAAACACAACATATGCAGTCACTATGAATCAACTACTTAGATGGTATTAGTGACCTGTAACAGA / TCTGTTACAGGTCACTAATACCATCTAAGTAGTTGATTCATAGTGACTGCATATGTTGTGTTTTACAGTATTATGTAGTCTGTTTTTTATGCAAAATCTAATTTAATATATTGATATTTATATCATTTTACGTTTCTCGTTCAGCTTTTTTATACTAACTTG / CAAGTTAGTATAAAAAAGCTGAACGAGAAACGTAAAATGATATAAATATCAATATATTAAATTAGATTTTGCATAAAAAACAGACTACATAATACTGTAAAACACAACATATGCAGTCACTATGAATCAACTACTTAGATGGTATTAGTGACCTGTAACAGA [attP ; attR],activity (% fluorescent cells),"attP x attR, with IHF and XIS",2.3
GCTGTTACAGGTCACTAATACCATCTACGTAGTTGATTCATATTGTCTGCATATCTTGTGTTTTACAGTATTATCTAGTCTGTTTTTTATCCAAAATCTAATTTATTATATTGATATTTATATCATTTTACGTTTCTCGTTCAGCTTTTTTATACTAAGTTGGCATTATAAAAAAGCATTGCTTATCAATTTGTTGCAACGAACAGGTCACTATCAGTCAAAATATAATCATTATTTGATTTC / GAAATCAAATAATGATTATATTTTGACTGATAGTGACCTGTTCGTTGCAACAAATTGATAAGCAATGCTTTTTTATAATGCCAACTTAGTATAAAAAAGCTGAACGAGAAACGTAAAATGATATAAATATCAATATAATAAATTAGATTTTGGATAAAAAACAGACTAGATAATACTGTAAAACACAAGATATGCAGACAATATGAATCAACTACGTAGATGGTATTAGTGACCTGTAACAGC / GCTGTTACAGGTCACTAATACCATCTACGTAGTTGATTCATATTGTCTGCATATCTTGTGTTTTACAGTATTATCTAGTCTGTTTTTTATCCAAAATCTAATTTATTATATTGATATTTATATCATTTTACGTTTCTCGTTCAGCTTTTTTATACTAAGTTGGCATTATAAAAAAGCATTGCTTATCAATTTGTTGCAACGAACAGGTCACTATCAGTCAAAATATAATCATTATTTGATTTC / GAAATCAAATAATGATTATATTTTGACTGATAGTGACCTGTTCGTTGCAACAAATTGATAAGCAATGCTTTTTTATAATGCCAACTTAGTATAAAAAAGCTGAACGAGAAACGTAAAATGATATAAATATCAATATAATAAATTAGATTTTGGATAAAAAACAGACTAGATAATACTGTAAAACACAAGATATGCAGACAATATGAATCAACTACGTAGATGGTATTAGTGACCTGTAACAGC [attP.b ; attP.b],activity (% fluorescent cells),"attP.b x attP.b, with IHF, 0.4% without IHF plasmid, 2% in Example 2 cotransfection without IHF (p190)",1.5
